Columns and labels:
[1] = target: T1, IDX-1 (GST fusion, full length) (Rattus norvegicus, UniProt P52947 SEQ:1-283); assay: EMSA; data not shown; protein preparation not stated; conditions: tags: N-terminal GST (pGEX-KG), bacterially expressed
[2] = target: T1, IDX-1 (GST fusion, full length); assay: EMSA; conditions: tags: N-terminal GST (pGEX-KG), bacterially expressed; label: 32P
Experimental: (§1) Electrophoretic mobility shift assays (EMSA) were performed as described (Ron et al., 1990, Mol. and Cell. Biol. 10:1023) using bacterially-expressed IDX-1 or nuclear extracts prepared from RIN1027-B2 cells (Dignam et al., 1983, supra). PCR was used to generate a bacterial expression vector encoding the full length IDX-1 protein fused to glutathione S-transferase(GST). An oligonucleotide amplimer was designed to create an NcoI site at the initiation methionine of the IDX-1 cDNA. This primer was used in conjunction with the T3 primer to amplify the IDX-1 cDNA insert from an IDX-1/pBS(KS) subclone. The PCR product was digested with NcoI and XhoI, gel-purified, and ligated into NcoI/XhoI-cut pGEX-KG (Pharmacia Biotech Inc., Piscataway, N.J.). Expression and purification of the GST/IDX-1 fusion protein was performed as described (Smith and Johnson, 1988, supra).
(§2) Nuclear extracts form RIN1027-B2 cells or purified bacterially-expressed GST/IDX-1 were incubated with the following ^32P-labelled double-stranded oligonucleotide probes: 1) INS1-FLAT, the Far-linked AT-rich element of the rat insulin 1 gene (German et al., 1992, Mol. Cell. Biol. 12:1777) (5'-[…]-3'); 2) SMS-TAAT1, a FLAT-like element (5'-[…] […]

[3] = target: T1, IDX-1 (GST fusion, full length); assay: EMSA; several complexes; conditions: tags: N-terminal GST (pGEX-KG), bacterially expressed; label: 32P
Experimental: as §1, §2

[4] = target: IDX-1 (IDX-1/pBJ5 expressed in NIH-3T3) (Rattus norvegicus, UniProt P52947 SEQ:1-283); assay: cell_activity; CAT reporter in NIH-3T3
Description: Several different reporter constructs were used in cotransfection experiments with IDX-1/pBJ5 expression vector. The SMS900CAT plasmid consists of nucleotides −900 to +54, relative to the transcription start site, of the rat somatostatin gene linked 5' to the coding sequence of the bacterial chloramphenicol acetyl transferase (CAT) gene (Powers et al., 1989, supra). The plasmid SMS900(Δ−250/−120)CAT is identical to SMS900CAT with the exception of an internal deletion between nucleotides −250 and −120. This deletion removes a putative transcriptional suppressor region located between nucleotides −237 and −189 of the rat somatostatin gene (Vallejo et al., in preparation). SMS(−900/−250) TKCAT contains −900 to −250 of the rat somatostatin gene linked 5' to the herpes simplex thymidine kinase promoter in the CAT reporter plasmid PUTKAT (Prost and Moore, 1986, Gene 45:107). The plasmids SMS900CAT(TAAT1mut), SMS900CAT(TAAT2mut) and SMS900CAT(UE-Bmut) were created using oligonucleotide-directed mutagenesis (Kunkel, 1985, Proc. Natl. Acad. Sci. USA 82:488) to introduce clustered nucleotide substitutions in the IDX-1 binding sites located at −450, −290, and —90, respectively, within the SMS900CAT reporter. For SMS-TAAT1, the central 5'-ATTAAT-3' was converted to 5'-GCCGGC-3'. […]

[5] = target: T1, IDX-1 (GST fusion, full length); assay: EMSA; appears weaker than SMS-TAAT1; conditions: tags: N-terminal GST (pGEX-KG), bacterially expressed; label: 32P
Experimental: as §1, §2

T1 sequence (P52947 other isoform, or with tags, fused parts or gaps): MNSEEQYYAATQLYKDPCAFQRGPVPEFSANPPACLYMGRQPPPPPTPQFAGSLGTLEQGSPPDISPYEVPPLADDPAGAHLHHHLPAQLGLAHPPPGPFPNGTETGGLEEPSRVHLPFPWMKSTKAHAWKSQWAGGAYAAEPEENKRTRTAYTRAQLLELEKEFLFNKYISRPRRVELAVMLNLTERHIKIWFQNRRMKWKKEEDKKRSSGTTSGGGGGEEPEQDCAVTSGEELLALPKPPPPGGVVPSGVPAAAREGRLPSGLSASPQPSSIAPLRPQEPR
IDX-1 (IDX-1/pBJ5 expressed in NIH-3T3), sequence (P52947 other isoform, or with tags, fused parts or gaps): as above

B1: SMS-TAAT1 mutant (dsDNA)
DNA 1: GATCCCTGATTGCATGCCGGCTCTCAGATA
DNA 2: TATCTGAGAGCCGGCATGCAATCAGGGATC
modifications: [16-21]
[1]
  binding result: no binding

B2: SMS-TAAT2 mutant (dsDNA)
DNA 1: GATCCGATCTCAGCGGCCGATCATGCACCA
DNA 2: TGGTGCATGATCGGCCGCTGAGATCGGATC
modifications: [14-19]
[1]
  binding result: no binding

B3: SMS-PS (dsDNA)
DNA 1: GATCCAGGCAAGATTATTTGGTCA
DNA 2: TGACCAAATAATCTTGCCTGGATC
[2]
  binding result: no binding

B4: INS1-FLAT (dsDNA)
DNA 1: GATCCTTGTTAATCTAATTACCCTAGGTCTAA
DNA 2: TTAGACCTAGGGTAATTAGATTAACAAGGATC
[3]
  binding result: binds

B5: 6x SMS-TAAT1 in SMS65CAT (dsDNA)
DNA 1: GATCCCTGATTGCATATTAATTCTCAGATA
DNA 2: TATCTGAGAATTAATATGCAATCAGGGATC
[4]
  activity: 34 fold

B6: SMS-UE-B mutant (dsDNA)
DNA 1: GATCCGCGAGGTCGGCAGTGCGTAAAAGCACTGGTGA
DNA 2: TCACCAGTGCTTTTACGCACTGCCGACCTCGCGGATC
modifications: [12-17]
[1]
  binding result: no binding

B7: SMS-TAAT2 (dsDNA)
DNA 1: GATCCGATCTCAGTAATTAATCATGCACCA
DNA 2: TGGTGCATGATTAATTACTGAGATCGGATC
[5]
  binding result: binds

B8: SMS-UE-B (dsDNA)
DNA 1: GATCCGCGAGGCTAATGGTGCGTAAAAGCACTGGTGA
DNA 2: TCACCAGTGCTTTTACGCACCATTAGCCTCGCGGATC
[2]
  binding result: binds
